Source: publication PMC8387964 (2021)

Tests used:
Rac1 [1] = molecular target: Rac1 (Homo sapiens, UniProt P63000)
Rac1 [2] = molecular target: Rac1 (Homo sapiens, UniProt P63000, Rac1 acetylated at K166)

B1: p67phox (protein)
chain: MSLVEAISLWNEGVLAADKKDWKGALDAFSAVQDPHSRICFNIGCMYTILKNMTEAEKAFTRSINRDKHLAVAYFQRGMLYYQTEKYDLAIKDLKEALIQLRGNQLIDYKILGLQFKLFACEVLYNIAFMYAKKEEWKKAEEQLALATSMKSEPRHSKIDKAMECVWKQKLYEPVVIPVGKLFRPNERQVAQLAKKDYLGKATVVASVVDQDSFSGFAPLQPQAAEPPPRPKTPEIFRALEGEAHRVLFGFVPETKEELQVMPGNIVFVLKKGNDNWATVMFNGQKGLVPCNYLEPVELRIHPQQQPQEESSPQSDIPAPPSSKAPGRPQLSPGQKQKEEPKEVKLSVPMPYTLKVHYKYTVVMKTQPGLPYSQVRDMVSKKLELRLEHTKLSYRPRDSNELVPLSEDSMKDAWGQVKNYCLTLWCENTVGDQGFPDEPKESEKADANNQTTEPQLKKGSQVEALFSYEATQPEDLEFQEGDIILVLSKVNEEWLEGECKGKVGIFPKVFVEDCATTDLESTRREV
Kd (Rac1 [1]): 2340 nM | Kd (Rac1 [2]): 109 nM
